The target of the assay is BACE1-GFP (UniProt P56817). The experiment in a line: co-IP.
UniProt P56817, sequence (P56817 46-501): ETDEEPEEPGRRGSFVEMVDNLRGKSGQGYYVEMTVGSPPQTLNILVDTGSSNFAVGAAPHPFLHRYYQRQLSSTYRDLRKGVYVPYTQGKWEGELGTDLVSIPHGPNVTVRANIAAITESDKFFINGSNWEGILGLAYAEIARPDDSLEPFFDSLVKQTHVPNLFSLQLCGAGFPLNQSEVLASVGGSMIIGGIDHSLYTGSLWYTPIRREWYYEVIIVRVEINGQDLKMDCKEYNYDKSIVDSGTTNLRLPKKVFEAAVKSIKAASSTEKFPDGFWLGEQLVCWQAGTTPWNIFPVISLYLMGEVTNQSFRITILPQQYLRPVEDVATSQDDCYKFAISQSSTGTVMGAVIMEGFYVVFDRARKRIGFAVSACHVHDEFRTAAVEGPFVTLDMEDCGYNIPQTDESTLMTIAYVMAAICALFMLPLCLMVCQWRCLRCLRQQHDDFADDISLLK

Consider “Bin1-KR (neuronal Bin1-MYC with the LOAD mutation K358R, rs138047593) (from UniProt O08539-1 1-588) (natural protein)”, for which the reduction of co-immunoprecipitated Bin1 against Bin1-WT worked out at 65%.
